Test results: paper PMC4288923

Columns and labels:
[1] = biological target: Slr1270 protein from Synechocystis 6803, refolded, C-terminal His tag (Synechocystis 6803); assay: SDS-PAGE without boiling
[2] = biological target: Slr1270 protein from Synechocystis 6803, refolded, C-terminal His tag (Synechocystis 6803); assay: SEC
[3] = biological target: Slr1270 protein from Synechocystis 6803, refolded, C-terminal His tag (Synechocystis 6803); assay: native gel or EMSA

Measured: stoichiometry N

Slr1270 protein from Synechocystis 6803, refolded, C-terminal His tag (natural protein)
3: all assays above
